Measurements from the supplement of paper PMC10567573.

B1: TRIM29 (parent)
chain: RKCPVHGKTMELFCQTDQTCICYL
B2: TNNI2 (parent)
chain: DWRKNIEEKSGMEGRKKMFESES

Variants of: B1
Experiment: protein stability index of a GFP-peptide fusion (GPS, HEK-293T) (PSI 1-6); higher = more stable
Details: c terminus: a fixed tail appended
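Further: lentivirally expressed fusions sorted by FACS into six bins by GFP to DsRed ratio, PSI derived from sequencing read proportions per bin multiplied by bin number.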

Protein stability index of substitutions, site by site:
F13: E 2.47, G 2.93, C 2.23, A 1.78, Y 2.32, H 2.5, M 3.16, S 2.5, R 1.96, P 2.4, I 2.89, Q 3.27, V 2.58, K 2.99, N 2.72, T 2.38, L 2.04
C3: D 2.13, W 2.72, Q 2.64, I 3.19, A 3.58, L 2.3, F 2.35, K 1.89, N 2.92, H 2.27, Y 1.9, E 2.52, S 2.54, R 2.12, P 1.97, T 3.1, G 2.1, V 1.86
V5: P 2.87, H 3.76, T 2.46, L 1.92, G 3.21, C 3.08, A 1.72, W 2.52, I 2.79, E 1.79, D 3.62, N 4.09, M 2.58, Y 2.71, R 2.42, S 3.1, Q 1.59, K 2.3
M10: R 2.84, Y 1.83, K 2.02, L 1.99, I 3.45, F 2.58, T 1.49, N 2.14, E 1.46, A 1.87, C 1.94, P 2.35, W 1.46, G 1.65, Q 1.87, D 2.44, S 2.43, V 1.98, H 2.43
C14: I 2.41, D 2.1, K 1.89, Q 2.03, L 2.27, G 1.86, N 2.33, H 2.83, F 3.17, E 2.77, A 2.5, P 2, M 1.46
K8: S 1.44, R 2.09, G 1.59, M 2.45, W 2.77, H 2.83, Q 2, Y 1.23, T 2.52, D 1.94, V 2.54, F 2.24, A 2.58, I 1.59, L 1.37, N 2.56, P 1.48, C 1.85, E 2.59
T9: N 2.79, P 1.98, G 2.72, L 2.56, D 2.81, Y 2.25, A 2.95, S 3.03, R 1.21, I 1.49, Q 1.77, M 2.77, W 2.42, C 1.75, F 3.32, H 1.78, V 2.41, K 2.46, E 2.06
R1: M 1.95, Q 1.91, G 3.33, S 2.19, K 2.22, F 1.95, C 2.39, P 2.66, E 1.71, L 3.04, I 1.65, T 2.32, W 2.46, A 2.68, H 3, D 1.67, N 2.84, Y 2.48, V 2.98
P4: I 2.52, E 3.3, V 2.21, Y 2.12, S 2.41, R 3.52, F 3.42, A 2.54, C 4.04, W 2.91, Q 1.95, N 3.09, D 2.63, L 3.39, T 2.25, K 2.58
G7: Q 3.09, N 3.49, T 2.46, I 3.48, P 2.46, L 2.26, S 2.57, W 1.4, Y 2.14, M 2.35, A 2.25, D 3.12, F 2.55, V 2.04, K 1.63, E 2.6, H 2.38, C 2.5
L12: A 2.21, E 1.53, D 2.81, V 2.87, W 1.08, Y 2.86, M 2.98, G 1.68, F 1.61, K 1.46, T 1.58, C 2.81, H 2.66, N 1.99, S 2.65, P 2.08, I 2.47, R 1.99
K2: L 2.36, G 2.57, Y 1.8, E 1.65, H 2.15, I 1.94, S 2.27, R 1.69, Q 2.12, T 1.7, C 1.82, N 2.68, P 3.02, A 2.54, W 2.91, M 2.17, V 2.02, D 2.15, F 2.36
H6: A 2.38, D 3.05, C 1.62, R 4.01, P 1.98, K 2.29, I 2.37, V 2.44, L 2.85, G 2.4, W 1.96, N 3.27, F 2.31
E11: W 2.41, A 1.83, T 2.66, V 2.9, Q 1.47, P 2.95, G 2.31, N 2.55, L 3.23, D 2.49, H 2.56, I 2.77, M 1.7, S 2.85, Y 1.8, K 1.92, R 2.14, F 1.76

Variants of: B2
Experiment: as above
Details: c terminus: native

Protein stability index, by site and new letter:
S21: K 3.49, T 4.47, E 5.2, W 3.35, D 5.47, R 3.41, P 1.37, Y 4.05, N 3.39, A 1.5, C 3.19, V 2.39, H 2.9, L 3.92, M 3.92, F 4.49, Q 4.96
S23: I 1.59, C 1.53, N 4.46, R 2.15, T 1.42, K 2.63, H 2.87, G 3.42, Y 2.59, P 2.42, F 3.02
E20: F 4.56, C 2.67, T 2.94, P 5.16, Q 3.54, A 2.88, H 4.26, W 3.71, M 2.75, G 4.73, I 2.89, L 2.33, V 2.79, S 4.04, K 2.92, R 2.22, Y 3.81, D 3.65
E22: P 2.06, K 4.67, F 4.22, T 5.25, D 3.81, W 3.86, V 3.77, G 5.04, I 3.3, R 1.58, S 5.13, M 3.29, L 3.17, H 4, C 3.71, Y 3.84, N 4.44, Q 4.33
M18: T 4.9, Y 1.85, P 4.59, V 2.39, K 2.78, W 1.66, S 4.36, R 4.45, L 1.13, N 4.47
F19: I 4.22, N 5.46, Y 2.22, D 5.43, Q 4.78, K 5.64, R 4.97, H 3.76, T 4.8, M 2.82, P 4.51, C 4.42, W 1.48, E 5.03, A 5.06, S 5.6
